The values below come from article PMC10781630, “Structural basis of Gabija anti-phage defence and viral immune evasion” (Nature, 2023).

Data set [1] deals with the molecule itself. As to the kind of experiment: crystal structure; co-expressed and co-purified GajAB, 3.0 Å; hanging drop, 18 °C, 100 mM HEPES-NaOH pH 7.5, 2.4% PEG-400, 2.2 M ammonium sulfate.
The target of data set [2] is T1, SUMO2-tagged GajAB complex (Bacillus cereus VD045), 4:4 (Bacillus cereus VD045, UniProt J8H9C1 2-578; J8HQ06 1-494).
T1 construct: GajA, Bacillus cereus VD045, IMG ID 2519684552; GajB, Bacillus cereus VD045, IMG ID 2519684553; also called SUMO2-GajAB; SUMO2-tagged BcGajAB; source: E. coli, co-expressed, purified (Ni-NTA, SEC); not shown: 6×His-SUMO2, N-terminal, kept; copies: 4 + 4
T1 sequence 1: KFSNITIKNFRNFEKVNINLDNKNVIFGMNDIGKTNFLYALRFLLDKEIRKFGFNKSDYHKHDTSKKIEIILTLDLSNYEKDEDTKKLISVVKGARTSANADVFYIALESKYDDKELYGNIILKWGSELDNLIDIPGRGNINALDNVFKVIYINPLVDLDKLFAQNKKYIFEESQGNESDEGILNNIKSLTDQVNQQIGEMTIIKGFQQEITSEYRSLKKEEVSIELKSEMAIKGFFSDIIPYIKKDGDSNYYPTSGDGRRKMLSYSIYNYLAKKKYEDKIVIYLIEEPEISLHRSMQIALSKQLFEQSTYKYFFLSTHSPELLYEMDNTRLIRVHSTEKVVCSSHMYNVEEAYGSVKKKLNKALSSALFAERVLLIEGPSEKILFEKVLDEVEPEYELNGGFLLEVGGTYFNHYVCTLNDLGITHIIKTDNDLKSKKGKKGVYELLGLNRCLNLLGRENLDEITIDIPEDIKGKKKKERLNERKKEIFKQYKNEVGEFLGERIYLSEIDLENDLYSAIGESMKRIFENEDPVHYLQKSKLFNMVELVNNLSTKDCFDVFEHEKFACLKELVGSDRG
T1 sequence 2: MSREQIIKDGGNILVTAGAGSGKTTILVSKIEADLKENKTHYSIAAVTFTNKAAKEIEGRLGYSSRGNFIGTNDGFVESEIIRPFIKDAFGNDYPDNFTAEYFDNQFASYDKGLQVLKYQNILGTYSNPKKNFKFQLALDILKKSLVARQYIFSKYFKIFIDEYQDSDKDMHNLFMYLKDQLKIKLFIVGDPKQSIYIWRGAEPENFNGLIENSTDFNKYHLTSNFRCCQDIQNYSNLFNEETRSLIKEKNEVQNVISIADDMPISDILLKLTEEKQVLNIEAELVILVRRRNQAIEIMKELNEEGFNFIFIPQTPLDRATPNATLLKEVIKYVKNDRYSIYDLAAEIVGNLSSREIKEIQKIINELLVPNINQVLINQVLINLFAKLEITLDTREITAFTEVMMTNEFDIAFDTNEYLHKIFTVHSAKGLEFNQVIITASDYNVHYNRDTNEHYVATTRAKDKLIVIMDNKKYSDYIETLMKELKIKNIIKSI
As to the kind of experiment: cryo-EM structure; SUMO2-GajAB–Gad1 (Phi3T) co-complex, 1 mg ml^-1, 2.57 Å D2 symmetry map. The note with it: both partners purified.

Data set [3] deals with the molecule itself. Described as above.
The target of data set [4] is T2, GajA E379A;GajB (Bacillus cereus VD045;Bacillus cereus …, UniProt J8H9C1;J8HQ06 1-578;1-494, E379A|).
T2 sequence 1: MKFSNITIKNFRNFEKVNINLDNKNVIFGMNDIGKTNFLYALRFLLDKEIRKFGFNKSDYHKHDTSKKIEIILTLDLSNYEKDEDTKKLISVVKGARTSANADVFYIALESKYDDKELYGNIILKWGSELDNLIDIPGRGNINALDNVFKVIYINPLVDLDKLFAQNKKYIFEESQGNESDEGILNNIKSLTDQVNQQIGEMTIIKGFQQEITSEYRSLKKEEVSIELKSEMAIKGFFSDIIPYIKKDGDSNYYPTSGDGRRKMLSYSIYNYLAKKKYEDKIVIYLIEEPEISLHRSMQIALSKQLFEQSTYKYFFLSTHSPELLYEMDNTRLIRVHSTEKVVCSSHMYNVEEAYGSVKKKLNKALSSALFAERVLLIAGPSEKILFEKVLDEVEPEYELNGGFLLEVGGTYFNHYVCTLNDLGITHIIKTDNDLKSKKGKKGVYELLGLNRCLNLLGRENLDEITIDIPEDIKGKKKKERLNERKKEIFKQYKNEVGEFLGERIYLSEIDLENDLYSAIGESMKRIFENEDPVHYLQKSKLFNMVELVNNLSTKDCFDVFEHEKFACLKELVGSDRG
T2 sequence 2: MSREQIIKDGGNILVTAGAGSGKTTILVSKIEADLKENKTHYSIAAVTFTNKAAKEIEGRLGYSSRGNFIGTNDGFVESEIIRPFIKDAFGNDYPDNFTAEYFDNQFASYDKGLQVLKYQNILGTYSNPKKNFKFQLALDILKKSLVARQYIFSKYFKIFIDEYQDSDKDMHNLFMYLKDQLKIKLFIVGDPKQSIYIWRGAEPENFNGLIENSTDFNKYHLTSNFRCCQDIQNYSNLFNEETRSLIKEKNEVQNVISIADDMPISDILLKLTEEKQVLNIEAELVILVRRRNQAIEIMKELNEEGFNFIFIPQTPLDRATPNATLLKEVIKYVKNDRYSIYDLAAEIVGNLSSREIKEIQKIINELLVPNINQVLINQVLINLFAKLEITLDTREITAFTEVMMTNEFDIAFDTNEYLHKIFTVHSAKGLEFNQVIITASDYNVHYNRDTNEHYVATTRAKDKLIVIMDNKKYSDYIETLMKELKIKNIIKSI
In words: EMSA; 5 mM Ca2+. The note with it: protein: recombinant;recombinant; tags: N-terminal 6xHis-SUMO2-5xGS, cleaved by SENP2;none in co-expressed complex; chain copies: 4;4; label: none (ethidium bromide post-stain).

Data set [5] addresses T3, GajA;GajB (Bacillus cereus VD045;Bacillus cereus …, UniProt J8H9C1;J8HQ06 1-578;1-494, |).
T3 sequence 1: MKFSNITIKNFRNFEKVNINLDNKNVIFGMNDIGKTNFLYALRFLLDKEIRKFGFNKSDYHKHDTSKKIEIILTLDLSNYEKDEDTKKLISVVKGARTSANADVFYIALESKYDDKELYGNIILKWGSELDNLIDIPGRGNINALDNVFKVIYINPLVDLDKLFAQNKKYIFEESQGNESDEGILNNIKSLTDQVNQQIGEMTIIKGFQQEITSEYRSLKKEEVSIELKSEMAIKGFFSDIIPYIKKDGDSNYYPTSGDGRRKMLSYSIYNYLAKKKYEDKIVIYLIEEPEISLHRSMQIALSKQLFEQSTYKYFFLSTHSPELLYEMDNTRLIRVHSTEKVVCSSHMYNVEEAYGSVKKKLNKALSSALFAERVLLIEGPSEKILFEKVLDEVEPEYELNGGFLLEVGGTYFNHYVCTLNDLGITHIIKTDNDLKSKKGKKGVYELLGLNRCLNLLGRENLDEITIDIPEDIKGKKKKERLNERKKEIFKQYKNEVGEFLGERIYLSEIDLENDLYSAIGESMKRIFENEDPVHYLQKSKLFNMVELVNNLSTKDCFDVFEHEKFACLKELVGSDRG
T3 sequence 2: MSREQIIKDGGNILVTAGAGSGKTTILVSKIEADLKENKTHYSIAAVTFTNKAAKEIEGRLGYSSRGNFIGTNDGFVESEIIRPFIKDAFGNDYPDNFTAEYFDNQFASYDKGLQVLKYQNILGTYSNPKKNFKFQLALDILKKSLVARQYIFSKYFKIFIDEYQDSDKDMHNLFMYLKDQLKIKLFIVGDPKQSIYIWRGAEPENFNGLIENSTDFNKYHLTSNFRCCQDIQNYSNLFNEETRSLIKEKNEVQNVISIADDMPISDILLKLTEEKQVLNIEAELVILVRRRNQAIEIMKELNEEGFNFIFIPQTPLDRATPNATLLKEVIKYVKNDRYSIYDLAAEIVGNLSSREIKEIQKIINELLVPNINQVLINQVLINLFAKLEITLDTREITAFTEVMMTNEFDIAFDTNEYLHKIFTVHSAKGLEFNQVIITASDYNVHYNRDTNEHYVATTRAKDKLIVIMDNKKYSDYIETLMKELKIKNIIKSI
As to the kind of experiment: EMSA; 5 mM Ca2+. The note with it: protein: recombinant;recombinant; chain copies: 4;4; label: none (ethidium bromide post-stain).

B1: Bacillus cereus VD045 GajA, co-expressed with GajB, tag removed (subunit of the GajAB complex) (enzyme)
chain: KFSNITIKNFRNFEKVNINLDNKNVIFGMNDIGKTNFLYALRFLLDKEIRKFGFNKSDYHKHDTSKKIEIILTLDLSNYEKDEDTKKLISVVKGARTSANADVFYIALESKYDDKELYGNIILKWGSELDNLIDIPGRGNINALDNVFKVIYINPLVDLDKLFAQNKKYIFEESQGNESDEGILNNIKSLTDQVNQQIGEMTIIKGFQQEITSEYRSLKKEEVSIELKSEMAIKGFFSDIIPYIKKDGDSNYYPTSGDGRRKMLSYSIYNYLAKKKYEDKIVIYLIEEPEISLHRSMQIALSKQLFEQSTYKYFFLSTHSPELLYEMDNTRLIRVHSTEKVVCSSHMYNVEEAYGSVKKKLNKALSSALFAERVLLIEGPSEKILFEKVLDEVEPEYELNGGFLLEVGGTYFNHYVCTLNDLGITHIIKTDNDLKSKKGKKGVYELLGLNRCLNLLGRENLDEITIDIPEDIKGKKKKERLNERKKEIFKQYKNEVGEFLGERIYLSEIDLENDLYSAIGESMKRIFENEDPVHYLQKSKLFNMVELVNNLSTKDCFDVFEHEKFACLKELVGSDRG
notes: GajA, Bacillus cereus VD045, IMG ID 2519684552; the 5×GS linker may stay on GajA after SENP2 cleavage; also called BcGajA; source: E. coli BL21(DE3) strains, co-expressed with GajB, purified (Ni-NTA, SUMO2 cleavage by hSENP2, SEC); not shown: 6×His-SUMO2-5×GS, N-terminal, cleaved
Regarding B1, the “stoichiometry N” value in data set [1] was 4.

B2: Bacillus phage Phi3T Gad1 (Gabija anti-defence 1) (natural protein)
chain: MKLIGIKTSNCFLVSDNIEGKRYFHSQLDELLFDGKRATETYKSDWFKLEKEPSVIEKQMPAKKINHRYELKEGFQESELTPKVIKASYIGEDSEYYEVKGLYDLKFEEIPQQNEKIEFEMNVIEEIDGELKLQSHNFNLNYNLLDRIQTHPMLLETKPCYLSQEESYKIIRNHIKANINPKFARITSDYDFCLTVVKVLELYKPHEYIVDLNAMYKRRKPKLEKRFQTKREVEIYKVAPKAYQSYPIVEPFSGKDVEDLKSNIKKFLDDLMAKINEPLVECKCCKGRGVILNEN
notes: Gad1, Bacillus phage Phi3T, 35 kDa; Eight copies stand in the 4:4:8 GajAB–Gad1 complex; source: E. coli, co-expressed with SUMO2-GajAB (pBAD vector), co-purified (Ni-NTA, SEC)
Take B2: the entries for the “stoichiometry N” value in data set [2] and in data set [3] were 8 Gad1 per 4:4 GajAB complex and 8, respectively.

B3: 56-bp target dsDNA (dsDNA)
DNA 1: TTTTTTTTTTTTTTTTTAATAACCCGGTTATTTTTTTTTTTTTTTTTTTTTTTTTT
DNA 2: AAAAAAAAAAAAAAAAAAAAAAAAAATAACCGGGTTATTAAAAAAAAAAAAAAAAA
For B3, the binding result in data set [4] and in data set [5] was “binds” in each case.

What is called stoichiometry N is a count of units in the complex or per binding partner.
